From US20040009174A1
“And” between values parts separate entries of the source, which are not always exact repeats. Equal entries are not always repeated.

B1: Soluble human recombinant OX40 [CD134]:Fc (Fc fusion, UniProt P43489 29-220, looked up, not shown: a dimerising Fc or GST)
chain: LHCVGDTYPSNDRCCHECRPGNGMVSRCSRSQNTVCRPCGPGFYNDVVSSKPCKPCTWCNLRSGSERKQLCTATQDTVCRCRAGTQPLDSYKPGVDCAPCPPGHFSPGDNQACKPWTNCTLAGKHTLQPASNSSDAICEDRDPPATQPQETQGPPARPITVQPTEAWPRTSQGPSTRPVEVPGGRAVAAILG

Tests used:
[1] = target: human CD40 (human) (UniProt P25942); assay: cell-based or functional assay
Sequence of UniProt P25942 (P25942 21-277): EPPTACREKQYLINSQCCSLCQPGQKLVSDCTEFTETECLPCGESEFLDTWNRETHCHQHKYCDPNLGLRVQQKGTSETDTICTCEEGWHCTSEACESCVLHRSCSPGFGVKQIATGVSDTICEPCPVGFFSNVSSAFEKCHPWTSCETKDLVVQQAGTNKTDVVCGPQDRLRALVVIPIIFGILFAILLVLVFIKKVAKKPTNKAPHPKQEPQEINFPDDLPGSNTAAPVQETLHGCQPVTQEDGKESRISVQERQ

[2] = target: human OX40 ligand (OX40L) (human) (UniProt P23510); assay: cell-based or functional assay
Sequence of UniProt P23510 (P23510 whole entry): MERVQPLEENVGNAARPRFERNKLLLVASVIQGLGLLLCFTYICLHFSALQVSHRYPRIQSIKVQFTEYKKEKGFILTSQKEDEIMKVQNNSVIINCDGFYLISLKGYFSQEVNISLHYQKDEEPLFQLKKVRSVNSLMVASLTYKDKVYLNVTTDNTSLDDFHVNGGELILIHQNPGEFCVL

Molecule | IL-6 production by HASM cells (ELISA), 1 ug/ml [1] | IL-6 production by HASM cells (ELISA), 1 ug/ml [2] | PKCβ2 in membrane fraction (Western blot), HASM cells [2] [fold]
recombinant human soluble CD40L (from UniProt P29965 116-261) (ligand) | 2 fold and 3 fold |  | 
B1 |  | 2 fold and 3 fold | 3
